Binding result and %AB-FRET (increase in the donor fluorescence) data for nine molecules are collected here from publication PMC9845307, “Arabidopsis LSH10 transcription factor and OTLD1 histone deubiquitinase interact and transcriptionally regulate the same target genes”.

The target in one data set is T1, GST-LSH10 (Arabidopsis, UniProt Q9S7R3 1-177).
T1 sequence: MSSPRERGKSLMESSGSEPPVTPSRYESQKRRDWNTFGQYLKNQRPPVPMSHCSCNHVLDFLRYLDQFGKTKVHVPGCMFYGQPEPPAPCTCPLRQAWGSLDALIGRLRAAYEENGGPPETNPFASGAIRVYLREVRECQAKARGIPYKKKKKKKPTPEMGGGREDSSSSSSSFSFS
The data set is described as follows: EMSA; poly dI.dC; reduced by 300x unlabeled probe; 100 mM Tris, 500 mM KCl, 10 mM DTT, pH 7.5 (as printed binding buffer), 1 ug dI.dC, 10 ng probe, 1 ug protein, room temperature 20 min, 6% native PAGE. The following applies: protein: recombinant, tags: N-terminal GST (pGEX-5X-1), label: biotin (labeled probe). For orientation: Mobility shift assays separate free from complexed probe on a gel.

The target of another data set is OTLD1-RFP (Arabidopsis). The data set is described as follows: FRET or BRET; acceptor photobleaching FRET (AB-FRET): GFP donor, RFP acceptor, transiently co-expressed in N. benthamiana leaves; %AB-FRET = percent increase in GFP emission after RFP photobleaching, cell nucleus, n = 13 cells. Background: In BRET a luciferase serves as donor, and the signal depends on an acceptor being close.
Chain of OTLD1-RFP (Arabidopsis) (F4IFS7 whole entry): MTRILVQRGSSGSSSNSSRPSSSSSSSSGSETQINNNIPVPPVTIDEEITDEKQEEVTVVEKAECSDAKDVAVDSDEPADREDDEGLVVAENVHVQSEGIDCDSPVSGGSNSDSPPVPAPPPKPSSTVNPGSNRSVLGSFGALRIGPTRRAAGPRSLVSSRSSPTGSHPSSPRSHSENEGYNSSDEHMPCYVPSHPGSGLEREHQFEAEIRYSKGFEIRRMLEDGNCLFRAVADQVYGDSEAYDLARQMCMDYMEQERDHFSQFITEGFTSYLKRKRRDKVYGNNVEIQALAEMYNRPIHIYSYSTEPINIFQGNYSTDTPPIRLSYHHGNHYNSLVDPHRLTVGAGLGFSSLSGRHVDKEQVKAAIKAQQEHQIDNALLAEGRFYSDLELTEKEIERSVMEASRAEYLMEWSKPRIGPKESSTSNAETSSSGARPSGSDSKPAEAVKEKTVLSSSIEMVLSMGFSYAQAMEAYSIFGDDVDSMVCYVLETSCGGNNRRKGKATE

B1: probe d (WUS) (dsDNA)
DNA 1: TATATATATATAATCTTCTCTCTCACACAAAACCTAAAA
DNA 2: TTTTAGGTTTTGTGTGAGAGAGAAGATTATATATATATA
Turning to B1, in the data set with GST-LSH10, the binding result was “binds”.

B2: probe c (WUS) (dsDNA)
DNA 1: TTTTAGAATTTTTGTTTTGTTTTCTGTGTGTATG
DNA 2: CATACACACAGAAAACAAAACAAAAATTCTAAAA
As for B2, in the data set with GST-LSH10, the binding result was “binds”.

B3: probe f (ABI5) (dsDNA)
DNA 1: GCTTTTAAACTATGTGAAGGAGGAGAACCTCCATAACAA
DNA 2: TTGTTATGGAGGTTCTCCTCCTTCACATAGTTTAAAAGC
As to B3, the binding result in the data set with GST-LSH10 is reported as “binds”.

B4: probe e (WUS) (dsDNA)
DNA 1: ATTTACCGTTAACTTTGTGAACAAAAGTCGAATCAAACACAC
DNA 2: GTGTGTTTGATTCGACTTTTGTTCACAAAGTTAACGGTAAAT
Consider B4, for which, in the data set with GST-LSH10, the binding result is “binds”.

B5: LSH10-GFP (natural protein)
chain: T1 sequence
B5 returned a %AB-FRET (increase in the donor fluorescence) in the data set with OTLD1-RFP (Arabidopsis) of 13%.

B6: probe a (OSR2) (dsDNA)
DNA 1: TAATATAAATTGCGTTTTGTTTTCCAGATATCAA
DNA 2: TTGATATCTGGAAAACAAAACGCAATTTATATTA
In the case of B6, in the data set with GST-LSH10, the binding result is recorded as “binds”.

B7: probe g (ABI5) (dsDNA)
DNA 1: ACAAGAAGCGGATTCTCTCAGTTTTCCGGCGGCGGAGGAACA
DNA 2: TGTTCCTCCGCCGCCGGAAAACTGAGAGAATCCGCTTCTTGT
As to B7, the binding result with GST-LSH10 is recorded as “binds”.

B8: probe h (ARL) (dsDNA)
DNA 1: TCAGAGAAAGTGTCTAGGGGAGAAGAACCACTGTGATTG
DNA 2: CAATCACAGTGGTTCTTCTCCCCTAGACACTTTCTCTGA
As for B8, the binding result in the data set with GST-LSH10 is reported as “binds”.

B9: probe b (OSR2) (dsDNA)
DNA 1: CTGTAACGTCTTTCTCTTCACACACATAAAAAAG
DNA 2: CTTTTTTATGTGTGTGAGAGAGAAAGACGTTACAG
For the molecule B9, the binding result with GST-LSH10 (internal mismatch/bulge as printed) is “binds”.
